The target in series [1] is T1, FMRP (full length, iso7) (Homo sapiens, UniProt Q06787-9 Q06787-9:3-605). As to the kind of experiment: filter; no binding detected.
Series [2] has as its target T1, FMRP (full length, iso7). As to the kind of experiment: filter; 5-6 nt stem sufficient for high affinity; boundaries mapped by alkaline hydrolysis/filter capture.
Series [3] has as its target T1, FMRP (full length, iso7). Put plainly: filter; antisense control in K+.
The target of series [4] is T2, FMRP C-terminus (distal to KH domains, contains RGG box) (Homo sapiens, UniProt Q06787-9 Q06787-9:402-605). Put plainly: filter; K+; abrogated in Li+. The settings on record: tags: N-terminal T7, C-terminal His (pET21b); label: 32P-UTP; G4. The procedure:
To assess whether the RNAs listed in Table 1 bound FMRP in a G-quartet dependent manner, binding in the presence of Li⁺ versus K⁺ was assessed, and mutants in which the Hoogsteen paired Gs were changed to Cs were generated.

The target in series [5] is FMRP I304N (KH2 mutant, full length) (Homo sapiens, UniProt Q06787-9 Q06787-9:3-605, I304N). Put plainly: filter; nearly as well as wild-type FMRP.
The target of series [6] is T1, FMRP (full length, iso7). As to the kind of experiment: EMSA; 100 nM FMRP; supershifted by anti-FMRP mAb. A general note: A gel shift assay detects complexes by their altered migration in electrophoresis.
Series [7] has as its target FMRP N-terminus (Homo sapiens, UniProt Q06787-9 Q06787-9:3-218). As to the kind of experiment: filter; all sc1 binding activity in C-terminal domain. The settings on record: tags: N-terminal T7, C-terminal His (pET21b); label: 32P-UTP; stem-loop with intramolecular G4.
The target in series [8] is T2, FMRP C-terminus (distal to KH domains, …). Described as above. Conditions: tags: N-terminal T7, C-terminal His (pET21b); label: 32P-UTP; stem-loop with intramolecular G4.
Series [9] concerns the target T1, FMRP (full length, iso7). As to the kind of experiment: filter; no effect versus sc1.
Series [10] has as its target T1, FMRP (full length, iso7). As to the kind of experiment: filter; severe decrease, undetectable.
Series [11] deals with T1, FMRP (full length, iso7). As to the kind of experiment: filter; minimal effect.

Changes are numbered by the printed parent chain. Numbers in names are those of the source.

B1: sc1 conserved element only (ssRNA)
RNA: GUGGAAGGAGUGGCUGGG
For B1, the binding result in [1] is reported as “no binding”.

B2: sc1 truncated with 5-6 nt stem (boundaries nt 23-57) (ssRNA)
RNA: GCUGCGGUGUGGAAGGAGUGGCUGGGUUGCGCACC
Turning to B2, in series [2], the binding result is listed as “binds”.

B3: Sec7-related GEF antisense transcript (ssRNA)
RNA: CCUCGGCCUCCUCCUGCCUCCCC
Turning to B3, the binding result in series [3] is reported as “no binding”.

B4: Guanine nucleotide exchange factor (KIAA0763) 3'UTR site (ssRNA)
RNA: GGGGAGGCAGGAGGAGGCCGAGG
For B4, in series [4], the binding result is “binds”.

B5: sc1 (ssRNA)
RNA: GAGCGGCUGCGGUGUGGAAGGAGUGGCUGGGUUGCGCACCUUGGCUUC
On to B5, for which the binding result in series [5] is listed as “binds”; in series [6], “binds”; in series [7], “no binding”; in [8], “binds”.

B6: sc1 C44G (ssRNA)
RNA: B5 RNA with C27G
modifications: [none]
Take B6: in series [9], the binding result is recorded as “binds”.

B7: sc1 A35A36 to CC (ssRNA)
RNA: B5 RNA with A18C, A19C
modifications: [none]
On to B7, for which, in series [10], the binding result is “no binding”.

B8: sc1 U49U50 to AA (ssRNA)
RNA: B5 RNA with U32A, U33A
modifications: [none]
Molecule B8 returned a binding signal in series [11] below 20 fold decrease.

B9: sc1 G38A (ssRNA)
RNA: B5 RNA with G21A
modifications: [none]
In series [11], B9 showed a binding signal below 20 fold decrease.

(Values after patent US20050130151, “Method and identification of downstream mrna ligands to fmrp and their role in fragile x syndrome and associated disorders” (Emory University, published 2005).)
